Experimental data published in patent US20180264123A1 (UNIVERSITY OF MIYAZAKI, published 2018).
Bridge positions count the residues as written; N and C are the ends. Xyl‑4‑branched CH3O‑PEG (40k)‑CH2 = xylose skeleton-containing 4-branched CH3O-PEG (40k)-CH2 (alkylamine-linked PEG, 40k)

B1: CH3O-PEG (5k)-(CH2)2-CH2-^αNH-(h.AM (16-52)) (peptide)
peptide: {CH3O‑PEG (5k)‑(CH2)2‑CH2‑}-CRFGTCTVQKLAHQIYQFTDKDKDNVAPRSKISPQGY-NH2
modifications: disulfide 1-6
B2: CH3O-PEG (40k)-(CH2)2-CH2-^αNH-(h.AM (1-52)) (peptide)
peptide: {CH3O‑PEG (40k)‑(CH2)2‑CH2‑}-YRQSMNNFQGLRSFGCRFGTCTVQKLAHQIYQFTDKDKDNVAPRSKISPQGY-NH2
modifications: disulfide 16-21
B3: CH3O-PEG (30k)-(CH2)2-CH2-^αNH-(h.AM (1-52)) (peptide)
peptide: {CH3O‑PEG (30k)‑(CH2)2‑CH2‑}-YRQSMNNFQGLRSFGCRFGTCTVQKLAHQIYQFTDKDKDNVAPRSKISPQGY-NH2
modifications: disulfide 16-21
B4: CH3O-PEG (20k)-(CH2)2-CH2-^αNH-(h.AM (1-52)) (peptide)
peptide: {CH3O‑PEG (20k)‑(CH2)2‑CH2‑}-YRQSMNNFQGLRSFGCRFGTCTVQKLAHQIYQFTDKDKDNVAPRSKISPQGY-NH2
modifications: disulfide 16-21
B5: GL-2-branched CH3O-PEG (20k)-CO-^αNH-(h.AM (6-52)) (peptide)
peptide: {GL‑2‑branched CH3O‑PEG (20k)‑CO‑}-NNFQGLRSFGCRFGTCTVQKLAHQIYQFTDKDKDNVAPRSKISPQGY-NH2
modifications: disulfide 11-16
B6: CH3O-PEG (5k)-(CH2)5-CO-^αNH-(h.AM (1-52)) (peptide)
peptide: {CH3O‑PEG (5k)‑(CH2)5‑CO‑}-YRQSMNNFQGLRSFGCRFGTCTVQKLAHQIYQFTDKDKDNVAPRSKISPQGY-NH2
modifications: disulfide 16-21
B7: GL-4-branched CH3O-PEG (40k)-CH2-^αNH-(h.AM (1-52)) (peptide)
peptide: {GL‑4‑branched CH3O‑PEG (40k)‑CH2‑}-YRQSMNNFQGLRSFGCRFGTCTVQKLAHQIYQFTDKDKDNVAPRSKISPQGY-NH2
modifications: disulfide 16-21
B8: GL-2-branched CH3O-PEG (40k)-CO-^αNH-(h.AM (1-52)) (peptide)
peptide: {GL‑2‑branched CH3O‑PEG (40k)‑CO‑}-YRQSMNNFQGLRSFGCRFGTCTVQKLAHQIYQFTDKDKDNVAPRSKISPQGY-NH2
modifications: disulfide 16-21
B9: GL-2-branched CH3O-PEG (20k)-CO-^αNH-(h.AM (16-52)) (peptide)
peptide: {GL‑2‑branched CH3O‑PEG (20k)‑CO‑}-CRFGTCTVQKLAHQIYQFTDKDKDNVAPRSKISPQGY-NH2
modifications: disulfide 1-6
B10: Xyl-4-branched CH3O-PEG (40k)-CH2-^αNH-(h.AM (1-52)) (peptide)
peptide: {Xyl‑4‑branched CH3O‑PEG (40k)‑CH2}-YRQSMNNFQGLRSFGCRFGTCTVQKLAHQIYQFTDKDKDNVAPRSKISPQGY-NH2
modifications: disulfide 16-21
B11: GL-2-branched CH3O-PEG (80k)-CH2-^αNH-(h.AM (1-52)) (peptide)
peptide: {GL‑2‑branched CH3O‑PEG (80k)‑CH2‑}-YRQSMNNFQGLRSFGCRFGTCTVQKLAHQIYQFTDKDKDNVAPRSKISPQGY-NH2
modifications: disulfide 16-21
B12: GL-2-branched CH3O-PEG (40k)-CH2-^αNH-(h.AM (1-52)) (peptide)
peptide: {GL‑2‑branched CH3O‑PEG (40k)‑CH2‑}-YRQSMNNFQGLRSFGCRFGTCTVQKLAHQIYQFTDKDKDNVAPRSKISPQGY-NH2
modifications: disulfide 16-21
B13: CH3O-PEG (20k)-(CH2)2-CH2-^αNH-(h.AM (11-52)) (peptide)
peptide: {CH3O‑PEG (20k)‑(CH2)2‑CH2‑}-LRSFGCRFGTCTVQKLAHQIYQFTDKDKDNVAPRSKISPQGY-NH2
modifications: disulfide 6-11
B14: CH3O-PEG (20k)-CO-^αNH-(h.AM (1-52)) (peptide)
peptide: {CH3O‑PEG (20k)‑CO‑}-YRQSMNNFQGLRSFGCRFGTCTVQKLAHQIYQFTDKDKDNVAPRSKISPQGY-NH2
modifications: disulfide 16-21
B15: Lys-2-branched CH3O-PEG (40k)-CH2-^αNH-(h.AM (1-52)) (peptide)
peptide: YRQSMNNFQGLRSFGCRFGTCTVQKLAHQIYQFTDKDKDNVAPRSKISPQGY
modifications: N-terminal α-amino group alkylamine-linked to lysine skeleton-containing 2-branched CH3O-PEG (40k)-CH2-; Cys16-Cys21 disulfide; C-terminal amide
B16: CH3O-PEG (5k)-(CH2)2-CH2-^αNH-(h.AM (11-52)) (peptide)
peptide: {CH3O‑PEG (5k)‑(CH2)2‑CH2‑}-LRSFGCRFGTCTVQKLAHQIYQFTDKDKDNVAPRSKISPQGY-NH2
modifications: disulfide 6-11
B17: GL-2-branched CH3O-PEG (40k)-CH2-^αNH-(h.AM (6-52)) (peptide)
peptide: {GL‑2‑branched CH3O‑PEG (40k)‑CH2‑}-NNFQGLRSFGCRFGTCTVQKLAHQIYQFTDKDKDNVAPRSKISPQGY-NH2
modifications: disulfide 11-16
B18: GL-4-branched CH3O-PEG (40k)-CO-^αNH-(h.AM (1-52)) (peptide)
peptide: {GL‑4‑branched CH3O‑PEG (40k)‑CO‑}-YRQSMNNFQGLRSFGCRFGTCTVQKLAHQIYQFTDKDKDNVAPRSKISPQGY-NH2
modifications: disulfide 16-21
B19: GL-3-branched CH3O-PEG (50k)-CH2-^αNH-(h.AM (1-52)) (peptide)
peptide: {GL‑3‑branched CH3O‑PEG (50k)‑CH2‑}-YRQSMNNFQGLRSFGCRFGTCTVQKLAHQIYQFTDKDKDNVAPRSKISPQGY-NH2
modifications: disulfide 16-21
B20: GL-2-branched CH3O-PEG (60k)-CH2-^αNH-(h.AM (1-52)) (peptide)
peptide: {GL‑2‑branched CH3O‑PEG (60k)‑CH2‑}-YRQSMNNFQGLRSFGCRFGTCTVQKLAHQIYQFTDKDKDNVAPRSKISPQGY-NH2
modifications: disulfide 16-21
B21: GL-2-branched CH3O-PEG (20k)-CO-^αNH-(h.AM (1-52)) (peptide)
peptide: {GL‑2‑branched CH3O‑PEG (20k)‑CO‑}-YRQSMNNFQGLRSFGCRFGTCTVQKLAHQIYQFTDKDKDNVAPRSKISPQGY-NH2
modifications: disulfide 16-21
B22: CH3O-PEG (5k)-(CH2)2-CH2-^αNH-(h.AM (6-52)) (peptide)
peptide: {CH3O‑PEG (5k)‑(CH2)2‑CH2‑}-NNFQGLRSFGCRFGTCTVQKLAHQIYQFTDKDKDNVAPRSKISPQGY-NH2
modifications: disulfide 11-16
B23: GL-4-branched CH3O-PEG (40k)-CO-^αNH-(h.AM (6-52)) (peptide)
peptide: {GL‑4‑branched CH3O‑PEG (40k)‑CO‑}-NNFQGLRSFGCRFGTCTVQKLAHQIYQFTDKDKDNVAPRSKISPQGY-NH2
modifications: disulfide 11-16
B24: CH3O-PEG (20k)-(CH2)2-CH2-^αNH-(h.AM (16-52)) (peptide)
peptide: {CH3O‑PEG (20k)‑(CH2)2‑CH2‑}-CRFGTCTVQKLAHQIYQFTDKDKDNVAPRSKISPQGY-NH2
modifications: disulfide 1-6
B25: CH3O-PEG (20k)-(CH2)5-CO-^αNH-(h.AM (1-52)) (peptide)
peptide: {CH3O‑PEG (20k)‑(CH2)5‑CO‑}-YRQSMNNFQGLRSFGCRFGTCTVQKLAHQIYQFTDKDKDNVAPRSKISPQGY-NH2
modifications: disulfide 16-21
B26: CH3O-PEG (10k)-(CH2)2-CH2-^αNH-(h.AM (1-52)) (peptide)
peptide: {CH3O‑PEG (10k)‑(CH2)2‑CH2‑}-YRQSMNNFQGLRSFGCRFGTCTVQKLAHQIYQFTDKDKDNVAPRSKISPQGY-NH2
modifications: disulfide 16-21
B27: GL-2-branched CH3O-PEG (20k)-CO-^αNH-(h.AM (11-52)) (peptide)
peptide: {GL‑2‑branched CH3O‑PEG (20k)‑CO‑}-LRSFGCRFGTCTVQKLAHQIYQFTDKDKDNVAPRSKISPQGY-NH2
modifications: disulfide 6-11
B28: GL-2-branched CH3O-PEG (40k)-CO-^αNH-(h.AM (16-52)) (peptide)
peptide: {GL‑2‑branched CH3O‑PEG (40k)‑CO‑}-CRFGTCTVQKLAHQIYQFTDKDKDNVAPRSKISPQGY-NH2
modifications: disulfide 1-6

The binders below were run against AM receptor (assay: cell-based or functional assay).

Intracellular cAMP concentration-increasing effect (%) vs h.AM (1-52); 10^-8 mol/L, HEK293 cells	Binder
39%	B1
101%	B2
100%	B3
100%	B4
99%	B5
81%	B6
95%	B7
87%	B8
96%	B9
81%	B10
94%	B11
96%	B12
97%	B13
100%	B14
102%	B15
80%	B16
77%	B17
85%	B18
80%	B19
99%	B20
99%	B21
90%	B22
83%	B23
97%	B24
67%	B25
101%	B26
104%	B27
61%	B28
